Measured values reported in patent US10801046B2, “Methods and materials for biosynthesizing multifunctional, multivariate molecules via carbon chain modification” (INVISTA NORTH AMERICA S.A.R.L., priority 2016, dated 2020).

B1: SEQ ID NO: 116: Chromobacterium violaceum aminotransferase (protein, listed as Chromobacterium violaceum)
chain: MQKQRTTSQWRELDAAHHLHPFTDTASLNQAGARVMTRGEGVYLWDSEGNKIIDGMAGLWCVNVGYGRKDFAEAARRQMEELPFYNTFFKTTHPAVVELSSLLAEVTPAGFDRVFYTNSGSESVDTMIRMVRRYWDVQGKPEKKTLIGRWNGYHGSTIGGASLGGMKYMHEQGDLPIPGMAHIEQPWWYKHGKDMTPDEFGVVAARWLEEKILEIGADKVAAFVGEPIQGAGGVIVPPATYWPEIERICRKYDVLLVADEVICGFGRTGEWFGHQHFGFQPDLFTAAKGLSSGYLPIGAVFVGKRVAEGLIAGGDFNHGFTYSGHPVCAAVAHANVAALRDEGIVQRVKDDIGPYMQKRWRETFSRFEHVDDVRGVGMVQAFTLVKNKAKRELFPDFGEIGTLCRDIFFRNNLIMRACGDHIVSAPPLVMTRAEVDEMLAVAERCLEEFEQTLKARGLA
modifications: Chromobacterium violaceum (strain ATCC 12472 / DSM 30191 / JCM 1249 / NBRC 12614 / NCIMB 9131 / NCTC 9757)
notes: Chromobacterium violaceum aminotransferase
B2: SEQ ID NO: 126: Pseudomonas syringae aminotransferase (protein)
chain: MSANNPQTLEWQALSSEHHLAPFSDYKQLKEKGPRIITRAEGVYLWDSEGNKILDGMSGLWCVAIGYGREELADAASKQMRELPYYNLFFQTAHPPVLELAKAISDIAPEGMNHVFFTGSGSEGNDTMLRMVRHYWALKGQPNKKTIISRVNGYHGSTVAGASLGGMTYMHEQGDLPIPGVVHIPQPYWFGEGGDMTPDEFGIWAAEQLEKKILELGVENVGAFIAEPIQGAGGVIVPPDSYWPKIKEILSRYDILFAADEVICGFGRTSEWFGSDFYGLRPDMMTIAKGLTSGYVPMGGLIVRDEIVAVLNEGGDFNHGFTYSGHPVAAAVALENIRILREEKIVERVRSETAPYLQKRLRELSDHPLVGEVRGVGLLGAIELVKDKTTRERYTDKGAGMICRTFCFDNGLIMRAVGDTMIIAPPLVISFAQIDELVEKARTCLDLTLAVLQG
modifications: Pseudomonas syringae pv. syringae (strain B728a)
notes: Pseudomonas syringae aminotransferase

Key:
Format in all cases: biochemical
[1] = Aminotransferase activity, N7-acetyl-1,7-diaminoheptane to N7-acetyl-7-aminoheptanal, L-alanine formation by RP-HPLC; settings: cell free extract, 10 mM substrate, 25° C., 4 h, against empty vector control, FIG. 51
Method: The activity of the N-terminal His-tagged aminotransferases of SEQ ID NOs: 116 (GenBank Accession No. AAQ59697.1), 119 (RefSeq Accession No. NP_417544.5), 125 (GenBank Accession No. AAGO8191.1), 126 (GenBank Accession No. AAY39893.1), 127 (GenBank Accession No. ABA81135.1), and 128 (GenBank Accession No. AEA39183.1) (see Example 6) for converting N7-acetyl-1,7-diaminoheptane to N7-acetyl-7-aminoheptanal was assayed using a buffer composed of a final concentration of 50 mM HEPES buffer (pH=7.5), 10 mM N7-acetyl-1,7-diaminoheptane, 10 mM pyruvate and 100 μM pyridoxyl 5′ phosphate. Each enzyme activity assay reaction was initiated by adding a cell free extract of the aminotransferases or the empty vector control to the assay buffer containing the N7-acetyl-1,7-diaminoheptane then incubated at 25° C. for 4 h, with shaking at 250 rpm. The formation of L-alanine was quantified via RP-HPLC.

[2] = Aminotransferase activity, 7-aminoheptanol to 7-oxoheptanol, L-alanine formation by RP-HPLC; settings: cell free extract, 10 mM substrate, 25° C., 4 h, against empty vector control, FIG. 52
Method: (§1) A nucleotide sequence encoding an N-terminal His-tag was added to the Chromobacterium violaceum, Pseudomonas syringae and Rhodobacter sphaeroides genes encoding the aminotransferases of SEQ ID NOs: 116 (GenBank Accession No. AAQ59697.1), 126 (GenBank Accession No. AAY39893.1), and 127 (GenBank Accession No. ABA81135.1), respectively such that N-terminal HIS tagged aminotransferases could be produced. The modified genes were cloned into a pET21a expression vector under the T7 promoter. Each expression vector was transformed into a BL21[DE3] E. coli host. Each resulting recombinant E. coli strain were cultivated at 37° C. in a 250 mL shake flask culture containing 50 mL LB media and antibiotic selection pressure, with shaking at 230 rpm. Each culture was induced overnight at 16° C. using 1 mM IPTG.
(§2) The pellet from each induced shake flask culture was harvested via centrifugation. Each pellet was resuspended and lysed via sonication. The cell debris was separated from the supernatant via centrifugation and the cell free extract was used immediately in enzyme activity assays.
Enzyme activity assays in the reverse direction (i.e., 7-aminoheptanol to 7-oxoheptanol) were performed in a buffer composed of a final concentration of 50 mM HEPES buffer (pH=7.5), 10 mM 7-aminoheptanol, 10 mM pyruvate, and 100 μM pyridoxyl 5′ phosphate. […] The formation of L-alanine was quantified via RP-HPLC.

[3] = Aminotransferase activity, heptane-1,7-diamine to 7-aminoheptanal, L-alanine formation by RP-HPLC; settings: cell free extract, 10 mM substrate, 25° C., 4 h, against empty vector control, FIG. 50
Method: as §1, with “A” for “A nucleotide”, “aeruginosa, Pseudomonas syringae, Rhodobacter sphaeroides, Escherichia coli,” for “syringae”, “Vibrio fluvialis” for “Rhodobacter sphaeroides”, “AAQ59697.1), 119 (RefSeq Accession No. NP_417544.5), 125 (GenBank Accession No. AAGO8191.1),” for “AAQ59697.1),”, “AAY39893.1),” for “AAY39893.1), and”, “ABA81135.1), and 128 (GenBank Accession No. AEA39183.1),” for “ABA81135.1),”
as §2
(§3) Enzyme activity assays in the reverse direction (i.e., heptane-1,7-diamine to 7-aminoheptanal) were performed in a buffer composed of a final concentration of 50 mM HEPES buffer (pH=7.5), 10 mM heptane-1,7-diamine, 10 mM pyruvate, and 100 μM pyridoxyl 5′ phosphate. Each enzyme activity assay reaction was initiated by adding cell free extract of the aminotransferase gene product or the empty vector control to the assay buffer containing the heptane-1,7-diamine and then incubated at 25° C. for 4 h, with shaking at 250 rpm. The formation of L-alanine was quantified via RP-HPLC.

[4] = Aminotransferase activity, reverse direction (7-aminoheptanoate to 7-oxoheptanoate), L-alanine formation by RP-HPLC; settings: cell free extract, 10 mM substrate, 25° C., 4 h, against empty vector control, FIG. 48
Method: (§4) A sequence encoding an N-terminal His-tag was added to the genes from Chromobacterium violaceum, Pseudomonas syringae, Rhodobacter sphaeroides, and Vibrio Fluvialis encoding the aminotransferases of SEQ ID NOs: 116 (GenBank Accession No. AAQ59697.1), 126 (GenBank Accession No. AAY39893.1), 127 (GenBank Accession No. ABA81135.1), and 128 (GenBank Accession No. AEA39183.1), respectively such that N-terminal HIS tagged aminotransferases could be produced. Each of the resulting modified genes was cloned into a pET21a expression vector under control of the T7 promoter and each expression vector was transformed into a BL21 [DE3] E. coli host. The resulting recombinant E. coli strains were cultivated at 37° C. in a 250 mL shake flask culture containing 50 mL LB media and antibiotic selection pressure, with shaking at 230 rpm. Each culture was induced overnight at 16° C. using 1 mM IPTG.
as §2
as §3, with “7-aminoheptanoate” for “heptane-1,7-diamine”, “7-oxoheptanoate)” for “7-aminoheptanal)”, “7-aminoheptanoate,” for “heptane-1,7-diamine,”, “pyruvate” for “pyruvate,”, “and” for “and then”, “L-alanine from pyruvate” for “L-alanine”

[5] = Aminotransferase activity, forward direction (7-oxoheptanoate to 7-aminoheptanoate), pyruvate formation by RP-HPLC; settings: cell free extract, 10 mM substrate, 10 mM L-alanine, 25° C., 4 h, against empty vector control, FIG. 49
Method: as §4
The pellet from each induced shake flask culture was harvested via centrifugation. Each pellet was resuspended and lysed via sonication. […]
Enzyme activity in the forward direction (i.e., 7-oxoheptanoate to 7-aminoheptanoate) was confirmed for the aminotransferases of SEQ ID NO: 126 (GenBank Accession No. AAY39893.1), SEQ ID NO: 127 (GenBank Accession No. ABA81135.1), and SEQ ID NO: 128 (GenBank Accession No. AEA39183.1). […] The formation of pyruvate was quantified via RP-HPLC.

Molecule | acceptance of N7-acetyl-1,7-diaminoheptane as substrate, forming N7-acetyl-7-aminoheptanal [1] | acceptance of 7-aminoheptanol as substrate, forming 7-oxoheptanol [2] | acceptance of heptane-1,7-diamine as substrate, forming 7-aminoheptanal [3] | acceptance of 7-aminoheptanoate as substrate [4] | acceptance of 7-oxoheptanoate as substrate, forming 7-aminoheptanoate [5]
B1 | accepted N7-acetyl-1,7-diaminoheptane as a substrate | accepted 7-aminoheptanol as a substrate | accepted heptane-1,7-diamine as substrate | accepted 7-aminoheptanote as substrate | –
B2 | accepted N7-acetyl-1,7-diaminoheptane as a substrate | accepted 7-aminoheptanol as a substrate | accepted heptane-1,7-diamine as substrate | accepted 7-aminoheptanote as substrate | accepted 7-oxoheptanoate as a substrate
